The results in this text go back to patent US20260258115A1 (MAPP BIOPHARMACEUTICAL, published 2026).

In assay [1] the target is RSV fusion glycoprotein (RSV F) on RSV-A2 virus (respiratory syncytial virus, UniProt P03420 26-574). The assay is described as follows: cell-based or functional assay.
Assay [2] deals with RSV postfusion F (postF), F deltaFP (respiratory syncytial virus, UniProt P03420 26-513). Description: BLI, IgG on sensor, 100 nM antigen.
In assay [3] the target is RSV prefusion F (preF), DS-Cav1 (respiratory syncytial virus, UniProt P03420 26-513). The assay is described as follows: BLI, IgG on sensor, 100 nM antigen. Background: In BLI a coated tip is dipped into the sample, and binding shifts an interference pattern.

Where only a bound is given, the exact number is not on record here.

One may read the Kd as a measure of binding affinity in units of concentration.

B1: ADI-41429 (antibody, V domains shown)
VH: QVQLVQSGAEVKKPGSSVKVSCKASGGTFSSYAISWVRQAPGQGLEWMGGIIPIFGTVNYAQKFPGRVTITADESTSTAYMELSSLRSEDTAIYYCARDSPSYTGSLLFSQYYYGMDVWGQGTTVTVSS
VL: QPVLTQPASVSGSPGQSITISCTGTSSDVGGYDYVSWYQHHPGKAPKLMIYEVSNRPSGVSNRFSGSKSGNTASLTISGLQAEDEADYYCSSFTTSSPRVFGTGTKLTVL
notes: IgG1; also called Ab 714
Turning to B1, in assay [1], the “Neutralization IC50 (RSV subtype A)” value is above 25 µg/mL. In addition, the values for the Kd in assay [2] and in assay [3] were 1 nM and 3.62 nM, respectively.

B2: ADI-41432 (antibody, V domains shown)
VH: QVQLVQSGAEVKKPGYSVKVSCKASGGTFSTFGISWVRQAPGLGLEWMGGIIPLFGTADYSKKYQGRVTITADESTSTGYMELNSLTPEDTAVYYCARSPGHLWSRYDAFEVWGQGTTVTVSS
VL: QPVLTQPRSVSGSPGQSVTISCSGTSSDVGGYNYVSWYQQYPGKAPKLIIYDVNKRPSGVPDRFSGSKSDNTASLTISGLQADDESDYFCCSYAGSHTFEVFGTGTKVTVL
notes: IgG1
Consider B2, for which the “Neutralization IC50 (RSV subtype A)” value in assay [1] was above 25 µg/mL. For the same molecule, the Kd was found to be 0.286 nM in assay [2] and 2.05 nM in assay [3].

B3: ADI-41436 (antibody, V domains shown)
VH: EVQLLESGGGVVQPGRSLRLSCAASGFTFSDYAMHWVRQAPGKGLEWVALISFDGSNEYYADSVKGRFTISRDNSRNTVYLQVNTLRPDDTAVFYCARDSHLRLTTRGWGSFDYWGQGTLVTVSS
VL: NFMLTQPHSVSESPGKTVTIACTRSSGSIARNYVQWYQQRPGRSPTMVIYEDNQRPSGVPDRFSGSIDTSSNSASLTISGLKTEDEADYYCQPYDPDNLVFGGGTKLTVL
notes: IgG1; also called Ab 720
Regarding B3, the “Neutralization IC50 (RSV subtype A)” value in assay [1] was above 25 µg/mL. Moreover, the Kd in assay [2] worked out at 0.237 nM; in assay [3], 1.1 nM.

B4: ADI-41451 (antibody, V domains shown)
VH: EVQLVESGGGLVQPGGSLRLSCAAAGFTFNNYEMHWVRQAPGKGLEWVSCVTSSGTATYYADSVKGRFTVSRDNAKKSLQLQMNSLRAEDTAVYYCARELYLGEDYYYGLDVWGQGTTVTVSS
VL: SYELTQPPSVSVSPGQTASISCSGDKLRNKHTCWYQHKSGQSPVLLIYQDNRRPSGIPDRLSGSKSGTTATLTISWTQAMDEAEYYCQAWDSNSAVIFGGGTKLTVL
notes: IgG1; also called Ab 735
With B4, the “Neutralization IC50 (RSV subtype A)” value in assay [1] came out at 0.84 µg/mL. Also, the figures for the Kd in assay [2] and in assay [3] were 1.67 nM and 1.82 nM, respectively.

B5: ADI-41446 (antibody, V domains shown)
VH: EVQLLESGGGLVQPGGSLRLSCAASGFTYYSYAMNWVRQAPGKGLEWVSAISGGGDNTFYAESVKGRFTISRDNAKNTLYLQMDSLRAEDTAVYYCAKDLQGYTSLYCFDYWGQGTLVTVSS
VL: EIVMTQSPATLSLSPGERAALSCRASQSVFNYVAWYQQKPGQAPRLLIYDTSKRATGIPARFSGSGSGTDFTLTISSLEPEDFAVYYCQHRYNWPGLIFGGGTKVEIK
notes: IgG1; also called Ab 730
Regarding B5, the “Neutralization IC50 (RSV subtype A)” value in assay [1] was above 25 µg/mL. Further, the Kd in assay [2] amounted to 0.722 nM; in assay [3], 3.6 nM.

B6: ADI-41444 (antibody, V domains shown)
VH: EVQLVESGPRLVKPSQTLSLTCTVSGGSIGTGDYHWTWIRQSPGKGLEWIGNIYYNGRTFYNPSLKGRGSISRDASKNQFSLNLSSVSAADTAVYYCARDRAAKGFDHWGQGTLVTVSS
VL: DIQLTQSPSTLSASVGDRVTITCRASQNINGWLAWYQQKPGRVPKLLIYKASTLESGVPSRFSGSASGTEFTLTINNLLPDDFATYYCQQYNDYPYTFGQGTKVEIK
notes: IgG1
Regarding B6, the “Neutralization IC50 (RSV subtype A)” value in assay [1] is above 25 µg/mL. Besides, the Kd is 0.541 nM in assay [2] and 3.01 nM in assay [3].

B7: ADI-41431 (antibody, V domains shown)
VH: QVQLVQSGAEVKKPGASVRVSCTASGYRFFTYGITWVRQAPGQGLEWMGWISAYNGNTKFAQKFQGRLTMTTDAPTSTADMELRGLRSDDTAVYYCAREEGGYHGTGSNNYWGQGTLVTVSS
VL: QSVLTQPPSVSAAPGQKVTISCSGSGSNVGGNDVSWYQQFPGTAPKLLIYDNSKRPSGIPDRFSGSKSGTSATLVITGLQTGDEADYYCGTWDSSLSVGVFGTGTKLTVL
notes: IgG1; also called Ab 715
With B7, the “Neutralization IC50 (RSV subtype A)” value in assay [1] is 2.38 µg/mL. The Kd in assay [2] worked out at 0.345 nM; in assay [3], 0.744 nM.

B8: ADI-41445 (antibody, V domains shown)
VH: QVQLVQSGAEVKRPGSSVKVSCKAFGGSFSNYAINWVRQAPGQGLEWMGGISPVLGTAIYAKRFQGKVTITADKFANTAYMDLSSLRFEDTAVYYCARSPPHVEFPLTKWFDPWGQGTLVTVSS
VL: EIVMTQSPGTLSLSPGERATLSCRASQSVNSGYLAWYQHKPGRAPRLLIYGASNRATGVPDRFSGSGSGTDFTLTISRLEPEDFAVYYCQQYDNSLFTFGPGTKVDIK
notes: IgG1
As to B8, the “Neutralization IC50 (RSV subtype A)” value in assay [1] is above 25 µg/mL. Moreover, the Kd in assay [2] is 0.772 nM; in assay [3], 3.04 nM.

B9: ADI-41448 (antibody, V domains shown)
VH: TVQLVESGAEVKSPGSSVRVSCQASGGSSNSYAISWVRQAPGQGLEWMGMISPLFGTTRFSQRFQGRVTITADKSTSTAYMELSSLNSEDTALYYCARGRFDFWSGPTRFYYTMDVWGQGTMVTVSS
VL: QSVLIQPASVSGSPGQSITISCSGTSSDIGGYNYVSWYQQHPGKAPKLLISDVTDRPSGISDRFSGSKSGTSASLTISGLQADDEADYYCTSYTTSSTWVFGGGTKLTVL
notes: IgG1
As for B9, in assay [1], the “Neutralization IC50 (RSV subtype A)” value was above 25 µg/mL. For the same molecule, the Kd in assay [2] stood at 0.428 nM; in assay [3], 2.75 nM.

B10: ADI-41427 (antibody, V domains shown)
VH: QVQLVESGPGLVKPSETLSLTCTVSGGSIGGYYWSWIRQPPGKGLEWIGYMYYSGSTNYNPSLKSRVTMSVDTSKNQFSLKLTSVTAADTAVYYCARVLRFLVGGMDVWGQGTTVTVSS
VL: QSVLIQPASVSGSPGQSITISCTGTSSDVGGYNYVSWYQQHPGKAPKLIIYEVSNRPSGVSNRFSGSKSGNTASLTISGLQAEDEADYYCNSYTTIATLVFGTGTKVTVL
notes: IgG1
In the case of B10, the “Neutralization IC50 (RSV subtype A)” value in assay [1] is above 25 µg/mL. The Kd in assay [2] came out at 0.917 nM; in assay [3], 2.7 nM.

B11: ADI-41425 (antibody, V domains shown)
VH: EVQLLESGPAVVKPTQTLTLTCTVSGLSLSSPRMSVSWIRQPPGKGLEWLARIDWDGDKYYGTSLKTRLSISKDTSKNQVVLTMTNMDPVDTGTYYCAQTSIYASNAYYLARLDPWGQGMLVTVSS
VL: EIVMTQSPSLLSASVGDRVTITCRASQNIATYLNWYQQKPGKAPRLLIYAASNLQSGVPSGFSGSGSGTVFTLTISSLQPEDFATYFCQQSYETSLTFGGGTKVEIK
notes: IgG1
B11: the “Neutralization IC50 (RSV subtype A)” value in assay [1] is above 25 µg/mL. Moreover, the Kd in assay [2] is 0.496 nM; in assay [3] it was 1.14 nM.

B12: ADI-41440 (antibody, V domains shown)
VH: EVQLVESGGGLVKPGGSLRLSCAVSGFTFSDYTMNWVRQAPGKGLEWVSSISGSGTYIYYGDSVKGQFTISRDNAKNSLYLQMNSLRAEDTAVYYCARELPAKTIFGVDFLGGTTAYDCWGQGTPVTVSS
VL: EIVLTQSPATLSVSPGERATLSCRASQSVSSNLAWYQQKPGQAPRLLIYSATTRATGVPARFSGSGSGTEFTLTISSLRSEDFAVYYCQQYNNGGTFGPGTKVEIK
notes: IgG1; also called Ab 724
Consider B12, for which the “Neutralization IC50 (RSV subtype A)” value in assay [1] was above 25 µg/mL. The Kd in assay [2] turned out to be 1.23 nM; in assay [3], 3.18 nM.

B13: ADI-41443 (antibody, V domains shown)
VH: EVQLVESGGGVVQPGKSLRLSCAASGFTFSSYAMHWVRQAPGKGLEWVSVIWYEDSDKYYGDSVKGRFTISRDNSKNTLYLQMNSLRAEDTAVYYCARKSGGFGGLDYWGQGTLVTVSS
VL: DIVMTQSPLSLPVTPGEPASISCKSSQSLLTANGYNYLDWYVQKPGQSPHVLISLGSNRASGVPDRFSGSGSGTDFTLKISRVEAEDVGVYYCMQAIETPITFGQGTRLEIK
notes: IgG1; also called Ab 727
For B13, the “Neutralization IC50 (RSV subtype A)” value in assay [1] was above 25 µg/mL. Besides, the results for the Kd in assay [2] and in assay [3] were 0.373 nM and 2.4 nM, respectively.
